Laboratory results as given in paper PMC7612645.

Key:
[1] = molecular target: HBV core protein (Cp) dimer (Hepatitis B virus) (UniProt P03146); assay: NCP reassembly, SEC-MALLS with RNase A challenge; conditions: 20 mM HEPES pH 7.5, 250 mM NaCl, 5 mM DTT, DMSO +/- compound, <0.15 M GuHCl, room temperature; Cp titrated in 10 steps to 1.2 uM
[2] = molecular target: HBV core protein (Cp) dimer (Hepatitis B virus) (UniProt P03146); assay: fluorescence anisotropy; conditions: 20 mM HEPES pH 7.5, 250 mM NaCl, 5 mM DTT, DMSO +/- compound, <0.15 M GuHCl, room temperature; Cp titrated in 10 steps to 1.2 uM; scale: normalized anisotropy change vs no compound

Chain of HBV core protein (Cp) dimer (Hepatitis B virus) (P03146 whole entry): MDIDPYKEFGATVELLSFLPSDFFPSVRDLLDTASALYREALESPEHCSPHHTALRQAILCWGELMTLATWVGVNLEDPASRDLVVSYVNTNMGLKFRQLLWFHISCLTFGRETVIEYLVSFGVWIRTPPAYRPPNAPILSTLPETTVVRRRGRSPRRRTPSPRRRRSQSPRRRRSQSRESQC

Row | Substance | binding signal (% NCP yield vs control) [1] | binding signal [2]
1 | HBV gRNA transcript | 90 | 
2 | HBV gRNA transcript, dye-labelled |  | 0.477
